Experimental data reported in patent US20050265970A1 (UNIVERSITY OF CHICAGO, published 2005).

Experiments:
[1] = biological target: T1, HA-GCK (full-length human, in 293 cells) (human, UniProt Q12851 1-820); test: combined immunoprecipitation and Western blot, 293 cells
T1 construct: not shown: HA tag
T1 sequence (looked up): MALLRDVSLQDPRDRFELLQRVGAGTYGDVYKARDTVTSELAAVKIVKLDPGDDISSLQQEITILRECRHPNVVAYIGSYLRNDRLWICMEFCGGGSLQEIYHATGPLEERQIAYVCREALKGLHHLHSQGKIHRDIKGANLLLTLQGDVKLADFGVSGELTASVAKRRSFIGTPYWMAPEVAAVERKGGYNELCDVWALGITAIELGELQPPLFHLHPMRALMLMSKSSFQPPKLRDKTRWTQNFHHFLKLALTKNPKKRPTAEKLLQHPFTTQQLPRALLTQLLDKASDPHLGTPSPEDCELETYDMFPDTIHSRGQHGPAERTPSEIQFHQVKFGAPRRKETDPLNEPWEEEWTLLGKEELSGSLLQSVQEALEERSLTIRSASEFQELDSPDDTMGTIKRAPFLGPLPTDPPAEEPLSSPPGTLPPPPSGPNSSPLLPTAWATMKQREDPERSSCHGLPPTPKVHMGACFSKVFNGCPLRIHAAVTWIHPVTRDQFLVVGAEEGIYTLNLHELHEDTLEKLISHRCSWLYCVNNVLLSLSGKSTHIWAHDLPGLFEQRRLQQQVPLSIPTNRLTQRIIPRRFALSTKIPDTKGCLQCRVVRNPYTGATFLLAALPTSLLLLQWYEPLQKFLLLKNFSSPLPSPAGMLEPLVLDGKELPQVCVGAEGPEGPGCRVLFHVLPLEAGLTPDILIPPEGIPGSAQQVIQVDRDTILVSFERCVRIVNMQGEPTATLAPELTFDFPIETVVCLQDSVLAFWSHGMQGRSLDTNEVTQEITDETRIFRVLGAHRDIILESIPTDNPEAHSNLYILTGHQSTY

[2] = biological target: T2, HA-GCKR (full-length human, in 293 cells) (human, UniProt Q9Y4K4 1-846); test: as above
T2 construct: not shown: HA tag
T2 sequence (Q9Y4K4 whole entry): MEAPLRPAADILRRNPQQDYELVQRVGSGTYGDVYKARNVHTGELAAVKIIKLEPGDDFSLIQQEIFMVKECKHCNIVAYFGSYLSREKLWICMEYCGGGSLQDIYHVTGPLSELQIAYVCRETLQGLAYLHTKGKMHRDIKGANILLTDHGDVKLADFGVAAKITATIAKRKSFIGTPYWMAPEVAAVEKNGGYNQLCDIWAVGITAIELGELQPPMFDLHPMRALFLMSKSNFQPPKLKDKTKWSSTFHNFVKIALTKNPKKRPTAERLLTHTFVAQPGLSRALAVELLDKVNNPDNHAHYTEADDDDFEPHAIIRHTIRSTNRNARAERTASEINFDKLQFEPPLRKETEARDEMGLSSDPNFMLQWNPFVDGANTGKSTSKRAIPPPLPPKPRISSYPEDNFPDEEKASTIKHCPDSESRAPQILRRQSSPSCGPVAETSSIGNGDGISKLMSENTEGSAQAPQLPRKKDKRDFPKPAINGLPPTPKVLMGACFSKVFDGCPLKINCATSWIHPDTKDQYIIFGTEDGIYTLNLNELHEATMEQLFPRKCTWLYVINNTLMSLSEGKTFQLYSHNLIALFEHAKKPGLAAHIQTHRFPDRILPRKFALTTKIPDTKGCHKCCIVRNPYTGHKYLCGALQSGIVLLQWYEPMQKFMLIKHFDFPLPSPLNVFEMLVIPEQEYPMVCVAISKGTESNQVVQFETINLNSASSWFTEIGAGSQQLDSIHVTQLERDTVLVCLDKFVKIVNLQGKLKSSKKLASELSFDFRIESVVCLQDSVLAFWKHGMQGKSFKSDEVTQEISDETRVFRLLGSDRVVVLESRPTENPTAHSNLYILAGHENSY

[3] = biological target: T3, HA-MEKK4 (full-length murine, in 293 cells) (murine, UniProt O08648 1-1597, limits assumed); test: co-IP from 293 cells
T3 construct: also called MEKK4/MTK1; not shown: HA tag
T3 sequence (O08648 whole entry): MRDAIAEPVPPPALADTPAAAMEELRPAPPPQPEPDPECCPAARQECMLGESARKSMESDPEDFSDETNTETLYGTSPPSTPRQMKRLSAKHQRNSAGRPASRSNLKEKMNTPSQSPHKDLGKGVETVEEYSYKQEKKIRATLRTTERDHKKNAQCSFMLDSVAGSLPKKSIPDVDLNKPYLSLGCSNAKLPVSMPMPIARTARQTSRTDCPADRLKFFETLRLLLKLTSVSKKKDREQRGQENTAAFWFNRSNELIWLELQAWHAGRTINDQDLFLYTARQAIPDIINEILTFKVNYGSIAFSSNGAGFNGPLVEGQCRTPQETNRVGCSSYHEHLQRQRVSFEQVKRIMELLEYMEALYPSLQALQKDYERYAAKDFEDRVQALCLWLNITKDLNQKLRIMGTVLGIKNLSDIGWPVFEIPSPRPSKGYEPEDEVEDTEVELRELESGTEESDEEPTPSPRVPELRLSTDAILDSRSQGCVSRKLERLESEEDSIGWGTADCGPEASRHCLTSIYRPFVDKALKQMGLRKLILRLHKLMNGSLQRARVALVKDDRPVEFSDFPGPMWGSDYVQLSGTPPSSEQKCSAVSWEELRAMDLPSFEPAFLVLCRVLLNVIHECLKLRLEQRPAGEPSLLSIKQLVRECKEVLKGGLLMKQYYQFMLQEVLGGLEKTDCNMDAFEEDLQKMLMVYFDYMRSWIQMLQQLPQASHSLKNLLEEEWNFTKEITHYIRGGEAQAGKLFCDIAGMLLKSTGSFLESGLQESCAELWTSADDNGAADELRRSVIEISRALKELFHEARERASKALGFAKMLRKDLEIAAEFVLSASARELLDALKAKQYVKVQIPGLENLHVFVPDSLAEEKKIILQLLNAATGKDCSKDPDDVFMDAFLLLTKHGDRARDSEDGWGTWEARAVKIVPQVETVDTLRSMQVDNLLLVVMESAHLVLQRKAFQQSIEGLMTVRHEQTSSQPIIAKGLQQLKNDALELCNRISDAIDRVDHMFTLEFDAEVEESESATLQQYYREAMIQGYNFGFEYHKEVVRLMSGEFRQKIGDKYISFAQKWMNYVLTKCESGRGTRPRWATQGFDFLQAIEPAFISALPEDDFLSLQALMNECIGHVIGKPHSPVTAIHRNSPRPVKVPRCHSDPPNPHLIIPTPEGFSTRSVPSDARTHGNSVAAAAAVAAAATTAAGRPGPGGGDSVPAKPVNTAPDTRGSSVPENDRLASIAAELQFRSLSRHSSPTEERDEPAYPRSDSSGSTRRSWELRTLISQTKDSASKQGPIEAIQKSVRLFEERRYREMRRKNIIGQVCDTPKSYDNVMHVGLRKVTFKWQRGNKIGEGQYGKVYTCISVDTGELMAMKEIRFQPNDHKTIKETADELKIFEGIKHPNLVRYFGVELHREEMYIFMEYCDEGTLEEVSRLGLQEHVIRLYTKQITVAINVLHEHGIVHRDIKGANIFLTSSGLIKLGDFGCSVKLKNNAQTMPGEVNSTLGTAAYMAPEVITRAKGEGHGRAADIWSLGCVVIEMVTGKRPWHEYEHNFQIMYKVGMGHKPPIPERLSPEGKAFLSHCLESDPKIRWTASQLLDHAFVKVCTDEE

[4] = biological target: T4, HA-MEKK1 (full-length human, in 293 cells) (human, UniProt Q13233 1-1512, limits assumed); test: co-IP from 293 cells, anti-FLAG beads, anti-HA Western blot
T4 construct: not shown: HA tag
T4 sequence (Q13233 whole entry): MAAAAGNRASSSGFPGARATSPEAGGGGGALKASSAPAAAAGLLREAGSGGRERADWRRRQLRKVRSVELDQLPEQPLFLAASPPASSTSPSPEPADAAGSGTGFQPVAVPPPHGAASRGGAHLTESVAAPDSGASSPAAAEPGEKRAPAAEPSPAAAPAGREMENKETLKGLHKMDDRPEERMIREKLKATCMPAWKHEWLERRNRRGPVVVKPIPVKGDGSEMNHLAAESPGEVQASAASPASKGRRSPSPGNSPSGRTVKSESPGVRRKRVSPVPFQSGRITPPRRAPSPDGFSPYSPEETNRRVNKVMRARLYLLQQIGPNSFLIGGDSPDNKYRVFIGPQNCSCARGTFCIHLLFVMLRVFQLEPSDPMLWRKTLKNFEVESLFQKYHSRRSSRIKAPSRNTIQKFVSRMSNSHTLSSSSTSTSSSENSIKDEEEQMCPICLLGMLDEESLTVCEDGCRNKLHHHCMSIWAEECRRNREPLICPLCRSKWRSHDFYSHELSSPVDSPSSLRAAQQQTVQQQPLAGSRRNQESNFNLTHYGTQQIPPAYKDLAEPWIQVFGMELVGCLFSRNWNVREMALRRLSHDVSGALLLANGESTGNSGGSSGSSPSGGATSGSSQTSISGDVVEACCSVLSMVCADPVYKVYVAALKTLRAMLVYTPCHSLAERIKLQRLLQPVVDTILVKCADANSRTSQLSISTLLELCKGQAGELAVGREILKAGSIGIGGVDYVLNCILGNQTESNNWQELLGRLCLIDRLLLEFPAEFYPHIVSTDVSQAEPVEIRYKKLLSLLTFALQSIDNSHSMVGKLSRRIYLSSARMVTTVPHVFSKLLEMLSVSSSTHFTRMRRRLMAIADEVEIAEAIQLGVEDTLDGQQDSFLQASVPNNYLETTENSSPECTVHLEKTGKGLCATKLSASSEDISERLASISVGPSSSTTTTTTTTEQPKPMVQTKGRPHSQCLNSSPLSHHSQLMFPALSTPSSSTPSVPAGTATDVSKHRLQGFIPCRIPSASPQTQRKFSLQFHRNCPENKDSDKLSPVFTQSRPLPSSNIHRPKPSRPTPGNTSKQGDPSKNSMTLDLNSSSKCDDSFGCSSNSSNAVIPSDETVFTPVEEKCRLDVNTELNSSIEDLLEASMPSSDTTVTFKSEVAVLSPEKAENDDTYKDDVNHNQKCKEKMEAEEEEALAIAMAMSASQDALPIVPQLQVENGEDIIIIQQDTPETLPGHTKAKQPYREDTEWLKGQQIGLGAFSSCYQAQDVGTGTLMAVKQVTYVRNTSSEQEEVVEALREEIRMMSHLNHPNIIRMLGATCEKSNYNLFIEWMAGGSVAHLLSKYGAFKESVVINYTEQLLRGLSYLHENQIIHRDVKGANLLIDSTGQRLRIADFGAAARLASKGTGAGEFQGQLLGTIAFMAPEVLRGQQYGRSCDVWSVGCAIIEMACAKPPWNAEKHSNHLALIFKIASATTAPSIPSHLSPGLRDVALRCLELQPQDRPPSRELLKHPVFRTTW

[5] = biological target: T5, HA-ASK1 (full-length human, in 293 cells) (human, UniProt Q99683 1-1374); test: as above
T5 construct: not shown: HA tag
T5 sequence (looked up): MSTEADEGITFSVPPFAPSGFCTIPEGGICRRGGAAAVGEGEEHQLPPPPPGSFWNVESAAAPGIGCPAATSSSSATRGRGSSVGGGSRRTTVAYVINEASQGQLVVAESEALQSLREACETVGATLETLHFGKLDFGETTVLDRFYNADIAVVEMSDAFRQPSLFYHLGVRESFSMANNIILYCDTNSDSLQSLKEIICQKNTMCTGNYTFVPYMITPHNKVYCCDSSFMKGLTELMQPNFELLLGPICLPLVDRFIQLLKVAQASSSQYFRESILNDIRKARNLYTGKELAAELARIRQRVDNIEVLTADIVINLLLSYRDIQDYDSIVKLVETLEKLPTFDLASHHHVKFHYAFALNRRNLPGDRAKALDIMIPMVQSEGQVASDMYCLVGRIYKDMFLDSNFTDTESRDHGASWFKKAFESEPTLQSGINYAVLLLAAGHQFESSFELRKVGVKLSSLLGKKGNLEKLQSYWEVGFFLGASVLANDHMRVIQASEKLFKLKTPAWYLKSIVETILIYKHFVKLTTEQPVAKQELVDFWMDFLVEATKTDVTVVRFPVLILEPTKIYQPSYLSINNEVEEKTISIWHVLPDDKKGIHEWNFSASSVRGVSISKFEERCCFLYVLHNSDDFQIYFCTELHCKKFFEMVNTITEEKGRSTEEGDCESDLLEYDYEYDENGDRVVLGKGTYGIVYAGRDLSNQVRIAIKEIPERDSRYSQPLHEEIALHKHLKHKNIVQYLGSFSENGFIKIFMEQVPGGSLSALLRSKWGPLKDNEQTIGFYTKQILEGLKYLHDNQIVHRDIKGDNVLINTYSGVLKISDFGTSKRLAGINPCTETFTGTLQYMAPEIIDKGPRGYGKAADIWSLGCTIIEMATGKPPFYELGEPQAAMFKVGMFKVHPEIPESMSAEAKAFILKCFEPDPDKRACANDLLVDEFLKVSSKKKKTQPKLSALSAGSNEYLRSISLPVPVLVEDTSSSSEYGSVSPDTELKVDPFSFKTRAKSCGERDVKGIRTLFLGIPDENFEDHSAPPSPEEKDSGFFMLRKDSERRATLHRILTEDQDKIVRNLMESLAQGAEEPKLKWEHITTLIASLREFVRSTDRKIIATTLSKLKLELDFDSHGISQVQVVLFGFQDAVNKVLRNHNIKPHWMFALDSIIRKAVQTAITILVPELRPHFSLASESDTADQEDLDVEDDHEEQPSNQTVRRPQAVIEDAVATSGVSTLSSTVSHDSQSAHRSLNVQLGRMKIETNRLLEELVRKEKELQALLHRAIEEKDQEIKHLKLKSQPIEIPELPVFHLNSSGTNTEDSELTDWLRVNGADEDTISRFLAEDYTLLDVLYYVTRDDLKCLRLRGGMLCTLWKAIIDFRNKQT

[6] = biological target: T6, HA-MEKK3 (full-length human, in 293 cells) (human, UniProt Q99759 1-626, limits assumed); test: as above
T6 construct: not shown: HA tag
T6 sequence (looked up): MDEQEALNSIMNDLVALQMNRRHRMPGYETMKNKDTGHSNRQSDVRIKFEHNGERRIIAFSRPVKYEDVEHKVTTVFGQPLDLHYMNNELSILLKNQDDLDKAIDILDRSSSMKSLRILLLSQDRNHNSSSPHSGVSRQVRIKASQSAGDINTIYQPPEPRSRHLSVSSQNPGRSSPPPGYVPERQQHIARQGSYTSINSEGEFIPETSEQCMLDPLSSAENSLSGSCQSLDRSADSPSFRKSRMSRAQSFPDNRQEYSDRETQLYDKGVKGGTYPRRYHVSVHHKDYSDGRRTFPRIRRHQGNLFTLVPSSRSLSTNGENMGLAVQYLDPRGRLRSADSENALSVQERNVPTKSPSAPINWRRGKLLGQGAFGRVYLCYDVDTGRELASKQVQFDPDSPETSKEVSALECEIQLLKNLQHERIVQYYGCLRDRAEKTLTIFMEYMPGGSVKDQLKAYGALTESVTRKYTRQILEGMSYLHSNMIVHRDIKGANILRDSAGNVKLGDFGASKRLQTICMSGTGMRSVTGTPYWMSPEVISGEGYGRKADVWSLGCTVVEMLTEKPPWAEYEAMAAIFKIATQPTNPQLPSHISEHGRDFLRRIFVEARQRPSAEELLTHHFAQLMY

binding result [1]: no binding
binding result [2]: no binding
binding result [3]: binds
binding result [4]: no binding
binding result [5]: binds
binding result [6]: no binding
B1: FLAG-Gadd45β (full-length murine Gadd45β, pcDNA-FLAG-Gadd45β, expressed in 293 cells) (other, UniProt P22339 1-160, looked up)
chain: MTLEELVASDNAVQKMQAVTAAVEQLLVAAQRQDRLTVGVYEAAKLMNVDPDSVVLCLLAIDEEEEDDIALQIHFTLIQSFCCDNDIDIVRVSGMQRLAQLLGEPAETLGTTEARDLHCLLVTNCHTDSWKSQGLVEVASYCEESRGNNQWVPYISLEER
notes: range 1-160; Co-expressed with HA-tagged kinases in 293 cells for co-immunoprecipitation; not shown: FLAG tag
